Assay results from CN115677858A (HEFEI HANKEMAB BIOTECHNOLOGY CO LTD; ANHUI ANKE …, dated 2023).

T1: 猴CD137胞外段 (SEQ ID No.20) (monkey, UniProt Q07011 24-186 (human entry))
T1 construct: Expressed in HEK293; no tag is stated; also called 猴CD137抗原
T1 chain: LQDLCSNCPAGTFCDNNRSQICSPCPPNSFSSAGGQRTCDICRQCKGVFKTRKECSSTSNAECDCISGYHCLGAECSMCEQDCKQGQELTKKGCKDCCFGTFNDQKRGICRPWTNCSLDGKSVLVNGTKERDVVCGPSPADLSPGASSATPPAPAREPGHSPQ


How the values were obtained:
[1] = molecular target: T2, 人CD137全长 (SEQ ID No.19)，表达于细胞 (human, UniProt Q07011 24-255); assay: flow cytometry (FACS) on CHO-K1/hCD137 cells, goat anti-human FITC; antibody at 83.33333333 nM
T2 construct: The full-length entry was transfected into CHO-K1 cells for FACS and into HEK293 cells for the reporter assay; also called CHO-K1/hCD137; 细胞表面人CD137

[2] = molecular target: T3, 人PD-L1全长 (SEQ ID No.22)，表达于CHO-K1细胞 (human, UniProt Q9NZQ7 19-290); assay: flow cytometry (FACS) on CHO-K1/hPD-L1 cells, goat anti-human FITC
T3 construct: The full-length entry was transfected; also called CHO-K1/hPD-L1; 细胞表面人PD-L1

[3] = molecular target: T2, 人CD137全长 (SEQ ID No.19)，表达于细胞; assay: flow cytometry (FACS) on CHO-K1/hCD137 cells, goat anti-human FITC; antibody at 250 nM
[4] = molecular target: T2, 人CD137全长 (SEQ ID No.19)，表达于细胞; assay: flow cytometry (FACS) on CHO-K1/hCD137 cells, goat anti-human FITC; antibody at 9.259259259 nM
[5] = molecular target: T2, 人CD137全长 (SEQ ID No.19)，表达于细胞; assay: flow cytometry (FACS) on CHO-K1/hCD137 cells, goat anti-human FITC; antibody at 1.028806584 nM
[6] = molecular target: T2, 人CD137全长 (SEQ ID No.19)，表达于细胞; assay: flow cytometry (FACS) on CHO-K1/hCD137 cells, goat anti-human FITC; 4-parameter logistic fit
[7] = molecular target: T4, 人PD-L1胞外段 (SEQ ID No.22 第19-238位) (human, UniProt Q9NZQ7 19-238); assay: ELISA, human PD-L1 extracellular domain coated, goat anti-human HRP
T4 construct: also called 人PD-L1抗原

[8] = molecular target: T5, 人PD-L1胞外段 (SEQ ID No.22 第19-238位)，带His标签 (human, UniProt Q9NZQ7 19-238); assay: bridging ELISA: human PD-L1-His coated, bispecific antibody, then human CD137-mouse Fc, goat anti-mouse HRP
T5 construct: It may be the same preparation as m7; not shown: His tag

[9] = molecular target: T2, 人CD137全长 (SEQ ID No.19)，表达于细胞; assay: flow cytometry (FACS) on CHO-K1/hCD137 cells, goat anti-human FITC; antibody at 3.086419753 nM
[10] = molecular target: T2, 人CD137全长 (SEQ ID No.19)，表达于细胞; assay: flow cytometry (FACS) on CHO-K1/hCD137 cells, goat anti-human FITC; antibody at 27.77777778 nM
[11] = molecular target: T2, 人CD137全长 (SEQ ID No.19)，表达于细胞; assay: flow cytometry (FACS) on CHO-K1/hCD137 cells, goat anti-human FITC; antibody at 0.342935528 nM
[12] = molecular target: T6, 猴PD-L1胞外段 (SEQ ID No.23) (monkey, UniProt Q9NZQ7 19-238 (human entry)); assay: ELISA, monkey PD-L1 extracellular domain coated, goat anti-human HRP
T6 construct: Expressed in HEK293; no tag is stated; also called 猴PD-L1抗原

[13] = molecular target: T1, 猴CD137胞外段 (SEQ ID No.20); assay: ELISA, monkey CD137 extracellular domain coated, goat anti-human HRP

T2 sequence (Q07011 24-255 limits assumed): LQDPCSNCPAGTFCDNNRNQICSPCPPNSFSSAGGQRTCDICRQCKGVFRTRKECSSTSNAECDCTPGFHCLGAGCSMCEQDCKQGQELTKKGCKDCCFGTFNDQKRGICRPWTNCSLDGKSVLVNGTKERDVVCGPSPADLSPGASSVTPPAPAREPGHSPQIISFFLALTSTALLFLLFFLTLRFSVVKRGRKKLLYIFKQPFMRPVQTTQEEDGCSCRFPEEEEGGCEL
T3 sequence (Q9NZQ7 19-290 limits assumed): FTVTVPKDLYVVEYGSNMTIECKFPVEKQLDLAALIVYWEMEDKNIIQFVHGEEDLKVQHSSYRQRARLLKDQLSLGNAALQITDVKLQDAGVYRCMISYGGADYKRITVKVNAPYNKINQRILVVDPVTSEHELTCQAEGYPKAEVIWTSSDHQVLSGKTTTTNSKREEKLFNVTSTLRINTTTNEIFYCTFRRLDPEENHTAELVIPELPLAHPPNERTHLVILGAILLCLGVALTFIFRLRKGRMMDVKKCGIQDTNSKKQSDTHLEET
T5 sequence (Q9NZQ7 19-238): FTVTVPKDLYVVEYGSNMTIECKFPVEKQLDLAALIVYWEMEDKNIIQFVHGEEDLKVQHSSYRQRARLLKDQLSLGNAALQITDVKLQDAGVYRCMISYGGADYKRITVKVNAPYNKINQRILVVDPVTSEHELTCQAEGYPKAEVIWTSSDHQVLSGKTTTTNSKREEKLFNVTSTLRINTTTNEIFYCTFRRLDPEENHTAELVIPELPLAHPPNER
T4 sequence (Q9NZQ7 19-238): as above
T6 sequence (Q9NZQ7 other isoform, or with tags, fused parts or gaps): as the sequence (Q9NZQ7 19-238) above, with A33T, A34S, S62N, R68Q, Q82R, F173L, T185A, T192I, H215L counted along it

| FACS signal (read-out name not given) [1] | binding result [2] | FACS signal (read-out name not given) [3] | FACS signal (read-out name not given) [4] | FACS signal (read-out name not given) [5] | EC50 [6] [nM] | binding result [7] | binding result [8] | FACS signal (read-out name not given) [9] | FACS signal (read-out name not given) [10] | FACS signal (read-out name not given) [11] | binding result [12] | binding result [13] | Binder |
| --- | --- | --- | --- | --- | --- | --- | --- | --- | --- | --- | --- | --- | --- |
| 16100 | binds | 16200 | 8000 | 3020 | 14.4 | binds | binds | 4096 | 12100 | 2680 | – | – | 抗人PD-L1/CD137双特异性抗体 结构B (1st scFv-L1-Fc-L2-2nd Fab) (bispecific antibody, human IgG4 S228P, kappa, F234A L235A, Anti-CD137 scFv at the N-terminus of human IgG4 Fc, anti-PD-L1 Fab at its C-terminus; also called B结构) heavy: not shown light: DIQMTQSPSTLSASVGDRVTITCQSSQNVYSNNRLSWYQQKPGKAPKLLIYWTSFLASGVPSRFSGSGSGTEFTLTISSLQPDDFATYYCAGGYSGNLYTFGQGTKLEIKRTVAAPSVFIFPPSDEQLKSGTASVVCLLNNFYPREAKVQWKVDNALQSGNSQESVTEQDSKDSTYSLSSTLTLSKADYEKHKVYACEVTHQGLSSPVTKSFNRGEC |
| 15400 | binds | 15300 | 7030 | 2770 | 16.4 | binds | binds | 3930 | 11100 | 2620 | binds | binds | 抗人PD-L1/CD137双特异性抗体 结构D6 (D2的突变分子) (bispecific antibody, human IgG4 S228P, kappa, F234A L235A, Mutant of D2; also called D6结构) heavy: not shown light: DIQMTQSPSTLSASVGDRVTITCQSSQNVYSNNRLSWYQQKPGKAPKLLIYWTSFLASGVPSRFSGSGSGTEFTLTISSLQPDDFATYYCAGGYSGNLYTFGQGTKLEIKRTVAAPSVFIFPPSDEQLKSGTASVVCLLNNFYPREAKVQWKVDNALQSGNSQESVTEQDSKDSTYSLSSTLTLSKADYEKHKVYACEVTHQGLSSPVTKSFNRGEC |
| 16700 | – | 16600 | 7390 | 2620 | 12.4 | – | – | 2920 | 14600 | 2590 | – | – | 抗人PD-L1/CD137双特异性抗体 结构D3 (D1的突变分子) (bispecific antibody, human IgG4 S228P, kappa, F234A L235A, Mutant of D1; also called D3结构) heavy: not shown light: DIQMTQSPSTLSASVGDRVTITCQSSQNVYSNNRLSWYQQKPGKAPKLLIYWTSFLASGVPSRFSGSGSGTEFTLTISSLQPDDFATYYCAGGYSGNLYTFGQGTKLEIKRTVAAPSVFIFPPSDEQLKSGTASVVCLLNNFYPREAKVQWKVDNALQSGNSQESVTEQDSKDSTYSLSSTLTLSKADYEKHKVYACEVTHQGLSSPVTKSFNRGEC |
